6 molecules from patent US20090214603A1 (UNIVERSITY OF LOUISVILLE RESEARCH FOUNDATION, published 2009) can be followed below.

Common to all, as to assay: cell-based or functional assay
The target in assay [1] is recombinant Mfa1 protein (rMfa1), full-length Mfa1 of P. gingivalis 33277 with a C-terminal penta-histidine tag (Porphyromonas gingivalis) (UniProt B2RHG1).
In assay [2] the target is minor fimbrial antigen Mfa1 of Porphyromonas gingivalis, on intact P. gingivalis ATCC 33277 cells (Porphyromonas gingivalis) (UniProt B2RHG1).
For assay [3], the target named is T1, minor fimbrial antigen Mfa1 of Porphyromonas gingivalis, on intact P. gingivalis ATCC 33277 cells (Porphyromonas gingivalis, UniProt B2RHG1 50-563).
T1 sequence: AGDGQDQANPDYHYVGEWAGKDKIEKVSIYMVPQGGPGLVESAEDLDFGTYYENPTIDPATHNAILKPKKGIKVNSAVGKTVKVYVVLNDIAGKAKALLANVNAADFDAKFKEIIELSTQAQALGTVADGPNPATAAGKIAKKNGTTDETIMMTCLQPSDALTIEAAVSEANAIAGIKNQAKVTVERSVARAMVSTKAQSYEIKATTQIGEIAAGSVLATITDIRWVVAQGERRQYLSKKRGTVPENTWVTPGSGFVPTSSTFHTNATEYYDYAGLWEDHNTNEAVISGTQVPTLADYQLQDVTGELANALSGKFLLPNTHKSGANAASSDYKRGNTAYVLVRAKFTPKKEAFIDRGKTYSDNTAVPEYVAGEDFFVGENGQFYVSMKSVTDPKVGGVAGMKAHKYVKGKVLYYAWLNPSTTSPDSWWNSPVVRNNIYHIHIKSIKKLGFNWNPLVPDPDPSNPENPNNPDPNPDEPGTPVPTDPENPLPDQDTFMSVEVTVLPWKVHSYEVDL

Sequence of recombinant Mfa1 protein (rMfa1), full-length Mfa1 of P. gingivalis 33277 with a C-terminal penta-histidine tag (Porphyromonas gingivalis) (B2RHG1 20-563, tags left off): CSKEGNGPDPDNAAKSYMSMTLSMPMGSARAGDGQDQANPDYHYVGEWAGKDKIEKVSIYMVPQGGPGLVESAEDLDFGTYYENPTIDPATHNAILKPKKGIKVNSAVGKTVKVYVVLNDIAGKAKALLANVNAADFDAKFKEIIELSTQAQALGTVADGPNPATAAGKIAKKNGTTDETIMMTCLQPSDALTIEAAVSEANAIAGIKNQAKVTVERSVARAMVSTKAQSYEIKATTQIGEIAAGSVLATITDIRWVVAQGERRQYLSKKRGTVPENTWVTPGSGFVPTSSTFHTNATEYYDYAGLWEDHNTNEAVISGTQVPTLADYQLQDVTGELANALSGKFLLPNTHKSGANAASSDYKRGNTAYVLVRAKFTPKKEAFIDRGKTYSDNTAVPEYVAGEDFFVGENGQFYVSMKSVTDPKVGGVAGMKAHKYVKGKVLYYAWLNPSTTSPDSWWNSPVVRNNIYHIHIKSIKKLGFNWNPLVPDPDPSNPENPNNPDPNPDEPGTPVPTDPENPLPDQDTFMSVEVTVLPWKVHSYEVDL

Consider “BAR peptide (SspB Adherence Region), synthetic peptide comprising residues 1167 to 1193 of the SspB (antigen I/II) protein of S. gordonii”, for which, in assay [1], the relative density (R.D.) of remaining BAR peptide after 5 minutes with P. gingivalis SMF1 and rMfa1 (relative density) worked out at 47.3; the relative density (R.D.) of remaining BAR peptide after 30 minutes with P. gingivalis SMF1 and rMfa1 (relative density) came to 8.2.

Take “BAR-II, derivative of the BAR peptide containing the Arg/Asn1182 and Ile/Val1185 substitutions”: in assay [2], the I50 of inhibition of P. gingivalis adherence and biofilm formation worked out at 0.52 µM; the fold difference of I50 against BAR amounted to 2.5 fold; the inhibition of adherence and formation of P. gingivalis microcolonies on the streptococcal substrate at 0.34 µM peptide was found to be 25%; the inhibition of adherence and formation of P. gingivalis microcolonies on the streptococcal substrate at 0.85 µM peptide came to 82%.

Consider “BAR-III, cyclic conformationally constrained disulfide bridged BAR peptide with Cys substituted for Leu1177 and Leu1191”, for which the specific activity of biofilm inhibition against BAR (fold less than BAR) in assay [2] was found to be 13.

In assay [2], “BAR-X, BAR analog in which the internal variable residues in VXXLL were altered to Pro and Gly (VPGLL) (peptide)” registered an inhibition of biofilm formation at 3.38 µM peptide of 15%.

In assay [2], “BAR-XI, BAR analog in which the positively charged Lys residues flanking VXXLL were altered to Asp (peptide)” returned an inhibition of biofilm formation of 40%.

As for LEAAPKKVQDLLKKANITVKGAFQLFS, in assay [3], the “% inhibition of microcolony formation relative to 0 µM, 0.169 µM BAR, with pepstatin A” value was found to be 19.9%; the “% inhibition of microcolony formation relative to 0 µM, 0.169 µM BAR, without pepstatin A” value amounted to 4.99%; the “% inhibition of microcolony formation relative to 0 µM, 0.338 µM BAR, with pepstatin A” value was 44.6%; the “% inhibition of microcolony formation relative to 0 µM, 0.338 µM BAR, without pepstatin A” value is 18.6%. Also, in assay [3], the “% inhibition of microcolony formation relative to 0 µM, 0.845 µM BAR, with pepstatin A” value was found to be 67.7%; the “% inhibition of microcolony formation relative to 0 µM, 0.845 µM BAR, without pepstatin A” value was determined as 42.5%; the “% inhibition of microcolony formation relative to 0 µM, 1.65 µM BAR, with pepstatin A” value turned out to be 97.8%; the “% inhibition of microcolony formation relative to 0 µM, 1.65 µM BAR, without pepstatin A” value amounted to 93.4%.
